Data taken from patent US20090004190A1, “Rage Fusion Proteins And Methods Of Use” (priority 2006, published 2009).
Several values for one entry are separate records, joined by “and”; a condition that tells them apart may be missing. Identical values can stand only once.

How the values were obtained:
[1] = system: allogeneic rejection of transplanted islet cells; experiment: Allogeneic islet transplantation (BALB/c islets in streptozotocin-diabetic B6 mice); type: in vivo, mouse; conditions: for day of graft loss, each animal: blood glucose exceeded 250 mg/dl; for day of graft loss, Mean: n 8
Experimental: C57BL/6J (6-8 week old) (B6) mice were made diabetic by a single intravenous injection of streptozotocin (STZ) (Sigma Chemical Co., St. Louis, Mo.) at 200 mg/kg. BALB/cJ (6-8 week old) (BALB) mice served as donors for islet transplantation, thus providing an allo-mismatch for islet transplants.
Mice (BALB/c) were anesthetized with ketamine HCl/xylazine HCl solution (Sigma, St. Louis Mo.). After intraductal injection of 3 ml of cold Hank's balanced salt solution (HBSS, Gibco, Grand Island N.Y.) containing 1.5 mg/ml of collagenase P (Roche Diagnostics, Branchburg, N.J.), pancreata were surgically procured and digested at 37° C. for 20 mins. Islets were washed with HBSS and purified by discontinuous gradient centrifugation using Polysucrose 400 (Cellgro, Herndon Va.) having four different densities (26%, 23%, 20%, and 11%). The tissue fragments at the interface of the 20% and 23% layers were collected, washed and resuspended in HBSS. Individual islets, free of attached acinar, vascular and ductal tissues were handpicked under an inverted microscope, yielding highly purified islets for transplantation.
Streptozotocin-induced diabetic C57BL/6 (B6) mice received islet grafts within 2 days of the diagnosis of diabetes. BALB/cJ (6-8 week old) (BALB) mice served as donors for allogeneic islet transplantation. For transplantation, 500-600 freshly isolated islets (i.e., approximately 550 islet equivalents) from donor mice were picked up with an infusion set and transplanted into the subcapular space of the right kidney of a recipient.
Test compounds were administered as soon as the islets were transplanted; administration continued for about 60 days, depending upon how the control animal was faring.
Islet graft function was monitored by serial blood glucose measurements daily for the first 2 weeks after islet transplantation, followed by every other day thereafter. Reversal of diabetes was defined as blood a glucose level of less than 200 mg/dl on two consecutive measurements. Graft loss was determined when blood glucose exceeded 250 mg/dl on two consecutive measurements.

[2] = system: transgenic mice expressing human Swedish mutant APP; experiment: Mouse model of AD (APP transgenic mice): amyloid deposition and Morris water maze; type: in vivo
Experimental: Experiments were performed to evaluate whether TTP-4000 could affect amyloid formation and cognitive dysfunction in a mouse model of AD. The experiments utilized transgenic mice expressing the human Swedish mutant amyloid precursor protein (APP) under the control of the PDGF-B chain promoter. Over time, these mice generate high levels of the RAGE ligand, amyloid beta (Aβ).
The APP mice (male) used in this experiment were designed by microinjection of the human APP gene (with the Swedish and London mutations) into mouse eggs under the control of the platelet-derived growth factor B (PDGF-B) chain gene promoter. The mice were generated on a C57BL/6 background and were developed by Molecular Therapeutics Inc. Animals were fed ad libitum and maintained by brother sister mating. The mice generated from this construct develop amyloid deposits starting at 6 months of age. Animals were aged for 6 months and then maintained for 90 days and sacrificed for amyloid quantification.
APP transgenic mice were administered vehicle or TTP4000 every other day [qod (i.p.)] for 90 days starting at 6 months of age. At the end of the experiment, animals were sacrificed and examined for Aβ plaque burden in the brain (i.e., plaque number). A 6-month control APP group was used to determine the baseline of amyloid deposits. In addition, at the end of the study, the animals were subjected to behavioral (Morris water maze) analysis. The investigators were blinded to the study compounds. Samples were given to the mice at 0.25 ml/mouse/every other day.
For histological examination, the animals were anesthetized with an intraperitoneal injection (IP) of sodium pentobarbital (50 mg/kg). The animals were transcardially perfused with 4° C., phosphate-buffered saline (PBS) followed by 4% paraformaldehyde. The brains were removed and placed in 4% paraformaldehyde over night. The brains were processed to paraffin and embedded. Ten serial 30-μm thick sections through the brain were obtained. Sections were subjected to primary antibody overnight at 4° C. (Aβ peptide antibody) in order to detect the amyloid deposits in the brain of the transgenic animals (Guo et al., J. Neurosci., 22:5900-5909 (2002)). Sections were washed in Tris-buffered saline (TBS) and secondary antibody was added and incubated for 1 hour at room temperature. After washing, the sections were incubated as instructed in the Vector ABC Elite kit (Vector Laboratories) and stained with […] (DAB). The reactions were stopped in water and cover-slipped after treatment with xylene. The amyloid area in each section was determined with a computer-assisted image analysis system, consisting of a Power Macintosh computer equipped with a Quick Capture frame grabber card, Hitachi CCD camera mounted on an Olympus microscope and camera stand. NIH Image Analysis Software, v. 1.55 was used. The images were captured and the total area of amyloid was determined over the ten sections. A single operator blinded to treatment status performed all measurements. Summing the amyloid volumes of the sections and dividing by the total number of sections was done to calculate the amyloid volume.
For quantitative analysis, an enzyme-linked immunosorbent assay (ELISA) was used to measure the levels of human total Aβ, Aβtotal and Aβ1-42 in the brains of APP transgenic mice (Biosource International, Camarillo, Calif.). Aβtotal and Aβ1-42 were extracted from mouse brains by guanidine hydrochloride and quantified as described by the manufacturer. […]

[3] = 300 ug + 30 ug qod ip (Group 3)
[4] = 300 ug LD + 100 ug qod ip (Group 1)

B1: TTP-4000: four domain RAGE fusion protein: human RAGE V and C1 domains with interdomain linkers (to residue 251) fused to human IgG1 CH2 and CH3; SEQ ID NO: 34/56 (protein, listed as Homo sapiens)
chain: QNITARIGEPLVLKCKGAPKKPPQRLEWKLNTGRTEAWKVLSPQGGGPWDSVARVLPNGSLFLPAVGIQDEGIFRCQAMNRNGKETKSNYRVRVYQIPGKPEIVDSASELTAGVPNKVGTCVSEGSYPAGTLSWHLDGKPLVPNEKGVSVKEQTRRHPETGLFTLQSELMVTPARGGDPRPTFSCSFSPGLPRHRALRTAPIQPRVWEPVPLEEVQLVVEPEGGAVAPPSVFLFPPKPKDTLMISRTPEVTCVVVDVSHEDPEVKFNWYVDGVEVHNAKTKPREEQYNSTYRVVSVLTVLHQDWLNGKEYKCKVSNKALPAPIEKTISKAKGQPREPQVYTLPPSRDELTKNQVSLTCLVKGFYPSDIAVEWESNGQPENNYKTTPPVLDSDGSFFLYSKLTVDKSRWQQGNVFSCSVMHEALHNHYTQKSLSLSPGK
day of graft loss, each animal [1, 3]: 13 day and 14 day and 12 day (2×) and 11 day (2×) and 8 day (2×) | day of graft loss, Mean [1, 3]: 11.125 days | day of graft loss, each animal [1, 4]: 14 day (2×) and 16 day (2×) and 13 day (2×) and 12 day and 15 day | day of graft loss, Mean [1, 4]: 14.125 days | inflammatory cytokines IL-1 and TNF-α ([2]; data not shown): can reduce | Aβ plaques in the brain ([2]; treated for 3 months, vs vehicle and human IgG1, FIG. 14A): fewer Aβ plaques | cognitive dysfunction (Morris water maze) ([2]; treated for 3 months, vs vehicle and human IgG1, FIG. 14B): less cognitive dysfunction
